Laboratory results from patent EP2718310B1 (TLA Targeted Immunotherapies AB, dated 2017).
Each block holds one molecule with its values, some of them ahead of it.

Key:
CCR3 (human) [1] = target: CCR3 (human) (UniProt P51677); assay: cell-based or functional assay
CCR5 (human) [2] = target: CCR5 (human) (UniProt P51681); assay: cell-based or functional assay
hCCR2b = target: T1, hCCR2b (human, UniProt P41597 1-374); assay: cell-based or functional assay
T1 chain: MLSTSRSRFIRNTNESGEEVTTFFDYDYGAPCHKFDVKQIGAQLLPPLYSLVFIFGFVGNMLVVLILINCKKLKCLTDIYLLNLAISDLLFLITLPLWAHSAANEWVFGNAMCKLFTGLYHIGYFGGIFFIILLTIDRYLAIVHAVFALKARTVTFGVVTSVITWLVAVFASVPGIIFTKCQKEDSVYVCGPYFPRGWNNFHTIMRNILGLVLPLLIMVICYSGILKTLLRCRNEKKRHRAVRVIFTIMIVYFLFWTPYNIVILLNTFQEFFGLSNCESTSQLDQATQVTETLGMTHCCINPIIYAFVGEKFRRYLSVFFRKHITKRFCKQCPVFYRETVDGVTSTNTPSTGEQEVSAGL

CCR9 (human) = CCR9 (human) (UniProt P51686); assay: cell-based or functional assay
Sequence of CCR9 (human) (P51686 whole entry): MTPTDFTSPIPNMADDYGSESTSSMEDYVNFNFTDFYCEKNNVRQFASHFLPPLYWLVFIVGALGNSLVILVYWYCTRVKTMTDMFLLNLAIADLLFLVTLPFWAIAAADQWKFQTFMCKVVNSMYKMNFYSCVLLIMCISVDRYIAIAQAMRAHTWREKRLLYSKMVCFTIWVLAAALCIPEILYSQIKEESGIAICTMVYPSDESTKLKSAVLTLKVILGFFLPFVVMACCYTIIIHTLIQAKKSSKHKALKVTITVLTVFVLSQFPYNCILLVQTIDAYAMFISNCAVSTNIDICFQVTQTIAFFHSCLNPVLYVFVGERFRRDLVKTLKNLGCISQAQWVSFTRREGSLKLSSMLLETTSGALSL

CCR3 (human) [3] = target: CCR3 (human) (UniProt P51677); assay: in vitro depletion: blood passed through magnetic column with eotaxin coupled MACS beads, flow cytometry for CCR3-expressing cells
CCR1 = CCR1 (UniProt P32246); assay: in vitro depletion: biotinylated RANTES coupled matrix, flow cytometry for CCR1, 3 or 5-expressing cells (receptor not singled out)
Sequence of CCR1 (P32246 whole entry): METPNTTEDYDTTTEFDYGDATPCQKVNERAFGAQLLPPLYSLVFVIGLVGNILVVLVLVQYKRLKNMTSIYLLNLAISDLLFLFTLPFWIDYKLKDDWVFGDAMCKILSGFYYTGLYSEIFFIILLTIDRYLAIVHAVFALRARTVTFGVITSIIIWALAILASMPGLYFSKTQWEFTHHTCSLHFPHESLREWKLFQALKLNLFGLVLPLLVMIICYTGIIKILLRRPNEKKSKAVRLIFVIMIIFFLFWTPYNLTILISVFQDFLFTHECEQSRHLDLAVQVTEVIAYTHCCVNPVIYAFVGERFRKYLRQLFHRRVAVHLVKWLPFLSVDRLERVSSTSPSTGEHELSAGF

CCR5 (human) [4] = target: CCR5 (human) (UniProt P51681); assay: as above
CCR3 (human) [5] = target: CCR3 (human) (UniProt P51677); assay: as above

Sequence of CCR3 (human) (P51677 whole entry): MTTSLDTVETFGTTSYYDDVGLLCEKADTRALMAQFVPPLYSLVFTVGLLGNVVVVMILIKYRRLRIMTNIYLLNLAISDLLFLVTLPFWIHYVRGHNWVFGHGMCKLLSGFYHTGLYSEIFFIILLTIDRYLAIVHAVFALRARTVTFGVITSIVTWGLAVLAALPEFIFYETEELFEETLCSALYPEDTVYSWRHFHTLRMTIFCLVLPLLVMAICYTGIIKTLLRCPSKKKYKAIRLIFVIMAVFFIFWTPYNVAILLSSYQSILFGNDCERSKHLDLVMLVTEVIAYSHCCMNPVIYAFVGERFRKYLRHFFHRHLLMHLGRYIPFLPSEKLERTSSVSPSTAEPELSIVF
Sequence of CCR5 (human) (P51681 whole entry): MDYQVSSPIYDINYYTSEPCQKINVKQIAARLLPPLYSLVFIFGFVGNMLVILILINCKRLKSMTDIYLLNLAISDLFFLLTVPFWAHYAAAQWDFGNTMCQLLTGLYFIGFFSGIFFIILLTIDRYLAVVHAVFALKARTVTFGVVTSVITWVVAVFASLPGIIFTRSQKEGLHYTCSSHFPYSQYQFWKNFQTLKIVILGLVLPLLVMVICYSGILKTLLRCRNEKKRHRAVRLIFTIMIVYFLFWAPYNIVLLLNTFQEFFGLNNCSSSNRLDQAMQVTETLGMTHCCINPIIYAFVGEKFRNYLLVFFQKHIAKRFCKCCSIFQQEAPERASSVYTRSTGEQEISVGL

EC50, Aequorin assay (agonist) (CCR3 (human) [1]): 10.7 nM
Molecule: recombinant native eotaxin (ligand)

EC50, Aequorin assay (antagonist) (CCR3 (human) [1]): 212 nM
Molecule: biotinEotaxin (CCL11) (ligand)

EC50, Aequorin assay (agonist activity) (CCR5 (human) [2]): 0.5 nM
Molecule: biotinRANTES (CCL5) (ligand)

EC50, Aequorin assay (partial agonist) (hCCR2b): 50.9 nM
Molecule: biotinMCP-2 (CCL8) (ligand)

EC50, Aequorin assay (agonist activity) (CCR9 (human)): 67.9 nM
Molecule: recombinant native TECK (from UniProt O15444 24-150) (ligand)

EC50, Aequorin assay (agonist activity) (CCR9 (human)): 63.6 nM
Molecule: biotinTECK(Met to Nleu substitution) (ligand)

reduction of receptor-expressing cells by the column (CCR3 (human) [3]): 25%
Molecule: biotinylated eotaxin coupled matrix (ligand)

reduction of receptor-expressing cells by the column (CCR1): 20%
reduction of receptor-expressing cells by the column (CCR5 (human) [4]): 20%
reduction of receptor-expressing cells by the column (CCR3 (human) [5]): 20%
Molecule: biotinylated RANTES coupled matrix (ligand)

EC50, Aequorin assay (partial agonist) (hCCR2b): 23.5 nM
B1: recombinant native MCP-2 (ligand, UniProt P80075 24-99, looked up)
chain: QPDSVSIPITCCFNVINRKIPIQRLESYTRITNIQCPKEAVIFKTKRGKEVCADPKERWVRDSMKHLDQIFQNLKP
